Target: recombinant human paraoxonase 2 (rPON2) (human) (UniProt Q15165)
Assay: SEC; Hi-Load 26/600 Superdex 75, renaturing buffer (20 mM Hepes pH 8.5, 0.5 mM CaCl2, 0.1% trehalose), 1.5 mL/min, pooled Ni-NTA fractions of refolded rPON2; calibrated with gel filtration markers; dimer to monomers

stoichiometry N: 2
Substance: recombinant human paraoxonase 2 (rPON2) (from UniProt Q15165 1-354) (enzyme)

Reference: PMC11173892
